From publication PMC8501021, “Nuclear transporter Importin-13 plays a key role in the oxidative stress transcriptional response” (Nature Communications, 2021) come the findings set out here.

The target of experiment [1] is T1, GFP-SP1 (GFP fused to specificity protein 1) (UniProt P08047 1-785).
T1 construct: Specificity protein 1 (SP1); plasmid from Jan-Jong Hung (National Cheng Kung University, Taiwan); Construct was a gift; also called GFP-tagged SP1; source: HeLa, transfected, in lysate
As to the kind of experiment: co-IP; HeLa cells co-expressing GFP, GFP-KLF4 or GFP-SP1 with DSRED-IPO13; treated with or without 125 uM H2O2 for 1 h before lysis; lysates with or without GTPgammaS (1.7 mM, 20 min on ice); precipitated with GFP-Trap resin; Western blot with anti-GFP and anti-IPO13. To be noted: partners not purified. In general terms: A western blot detects proteins with antibodies after separation by electrophoresis.

Experiment [2] concerns the target T2, GFP-KLF4 (eGFP fused to full-length mouse Kruppel like factor 4) (mouse, UniProt Q60793 1-483).
T2 construct: Kruppel like factor 4 (KLF4), mouse, full length; inserted in-frame at BamHI and HindIII of pEGFP-C1, C-terminal to eGFP; also called GFP-tagged KLF4; source: HeLa, transfected (pEGFP-C1 construct), in lysate; not shown: eGFP, N-terminal, kept
The experiment is described as above. To be noted: partners not purified.

T1 sequence (P08047 whole entry, the tested form may be a part): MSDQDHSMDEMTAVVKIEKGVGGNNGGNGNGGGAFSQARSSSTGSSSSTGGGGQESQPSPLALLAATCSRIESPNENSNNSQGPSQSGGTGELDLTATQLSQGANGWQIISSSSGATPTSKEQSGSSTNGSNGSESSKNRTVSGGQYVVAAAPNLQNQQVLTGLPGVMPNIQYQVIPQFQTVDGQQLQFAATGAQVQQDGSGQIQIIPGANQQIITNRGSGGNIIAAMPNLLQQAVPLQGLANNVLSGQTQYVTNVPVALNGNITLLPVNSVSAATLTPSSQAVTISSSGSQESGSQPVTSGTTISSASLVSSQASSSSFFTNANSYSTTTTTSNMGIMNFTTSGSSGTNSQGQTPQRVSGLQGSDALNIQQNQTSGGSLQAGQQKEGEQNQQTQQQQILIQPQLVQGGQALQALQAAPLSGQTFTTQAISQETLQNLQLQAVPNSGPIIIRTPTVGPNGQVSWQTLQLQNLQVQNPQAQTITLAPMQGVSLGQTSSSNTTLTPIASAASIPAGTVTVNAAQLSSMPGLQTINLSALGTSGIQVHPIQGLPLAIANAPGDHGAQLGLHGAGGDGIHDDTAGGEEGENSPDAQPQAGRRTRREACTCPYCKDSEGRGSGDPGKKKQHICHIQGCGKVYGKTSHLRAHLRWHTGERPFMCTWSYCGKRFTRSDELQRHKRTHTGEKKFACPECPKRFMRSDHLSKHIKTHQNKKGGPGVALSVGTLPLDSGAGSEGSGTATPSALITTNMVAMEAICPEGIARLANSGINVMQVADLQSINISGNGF
T2 sequence (Q60793 whole entry, the tested form may be a part): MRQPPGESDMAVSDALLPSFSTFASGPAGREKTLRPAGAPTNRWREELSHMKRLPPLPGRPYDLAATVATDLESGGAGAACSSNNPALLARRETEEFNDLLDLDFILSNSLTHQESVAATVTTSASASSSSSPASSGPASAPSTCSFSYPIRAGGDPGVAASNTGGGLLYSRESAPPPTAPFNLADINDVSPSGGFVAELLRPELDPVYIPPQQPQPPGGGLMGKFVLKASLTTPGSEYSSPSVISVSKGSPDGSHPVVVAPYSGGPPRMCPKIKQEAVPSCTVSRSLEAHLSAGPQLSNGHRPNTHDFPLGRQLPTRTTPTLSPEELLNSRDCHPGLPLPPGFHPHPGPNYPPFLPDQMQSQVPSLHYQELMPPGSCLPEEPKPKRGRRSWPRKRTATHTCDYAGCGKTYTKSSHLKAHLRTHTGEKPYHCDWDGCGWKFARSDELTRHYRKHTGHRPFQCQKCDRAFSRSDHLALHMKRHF

B1: DSRED-IPO13 (Importin-13 fused to the DsRed2 fluorescent protein) (natural protein, UniProt O94829 1-963, looked up)
chain: MERREEQPGAAGAGAAPALDFTVENVEKALHQLYYDPNIENKNLAQKWLMQAQVSPQAWHFSWQLLQPDKVPEIQYFGASALHIKISRYWSDIPTDQYESLKAQLFTQITRFASGSKIVLTRLCVALASLALSMMPDAWPCAVADMVRLFQAEDSPVDGQGRCLALLELLTVLPEEFQTSRLPQYRKGLVRTSLAVECGAVFPLLEQLLQQPSSPSCVRQKVLKCFSSWVQLEVPLQDCEALIQAAFAALQDSELFDSSVEAIVNAISQPDAQRYVNTLLKLIPLVLGLQEQLRQAVQNGDMETSHGICRIAVALGENHSRALLDQVEHWQSFLALVNMIMFCTGIPGHYPVNETTSSLTLTFWYTLQDDILSFEAEKQAVYQQVYRPVYFQLVDVLLHKAQFPSDEEYGFWSSDEKEQFRIYRVDISDTLMYVYEMLGAELLSNLYDKLGRLLTSSEEPYSWQHTEALLYGFQSIAETIDVNYSDVVPGLIGLIPRISISNVQLADTVMFTIGALSEWLADHPVMINSVLPLVLHALGNPELSVSSVSTLKKICRECKYDLPPYAANIVAVSQDVLMKQIHKTSQCMWLMQALGFLLSALQVEEILKNLHSLISPYIQQLEKLAEEIPNPSNKLAIVHILGLLSNLFTTLDISHHEDDHEGPELRKLPVPQGPNPVVVVLQQVFQLIQKVLSKWLNDAQVVEAVCAIFEKSVKTLLDDFAPMVPQLCEMLGRMYSTIPQASALDLTRQLVHIFAHEPAHFPPIEALFLLVTSVTLTLFQQGPRDHPDIVDSFMQLLAQALKRKPDLFLCERLDVKAVFQCAVLALKFPEAPTVKASCGFFTELLPRCGEVESVGKVVQEDGRMLLIAVLEAIGGQASRSLMDCFADILFALNKHCFSLLSMWIKEALQPPGFPSARLSPEQKDTFSQQILRERVNKRRVKEMVKEFTLLCRGLHGTDYTADY
notes: Importin-13 (IPO13); PCR generated IPO13 insert put into pDsRed2-C1 at EcoRI and SmaI; also called dsRed2-IPO13; DSRED-tagged IPO13; source: HeLa, transfected (pDsRed2-fused IPO13), in lysate
Turning to B1, the “fold increase in co-precipitation with GTPgammaS against no addition, H2O2 treated cells” value in experiment [1] and in experiment [2] was around 2 fold throughout.
